Measured values: patent publication US20200222478A1

Target: HLA-A*03:01 (human)
Assay: UV peptide exchange + HLA class I ELISA
Conditions: remark: other sources report otherwise

Row | Binder | exchange rate vs Pos peptide
1 | FLFLLLPLS (here or on the partner: biotinylated heavy chain) [P87 9-mer peptide (AR-Intron splice variant)] | 2.4%
2 | HVPKILSGK (here or on the partner: biotinylated heavy chain) [P58 9-mer peptide (AR (Q903H))] | 32.5%
3 | RAVRRMNTF (here or on the partner: biotinylated heavy chain) [P17 9-mer peptide (MSMB-NOCA4 fusion)] | 3.8%
4 | IPVLTRWPL (here or on the partner: biotinylated heavy chain) [P19 9-mer peptide (TMEM222-LOC644961 fusion)] | 4.1%
5 | RVGNCKHLK (here or on the partner: biotinylated heavy chain) [P82 9-mer peptide (AR-V7 splice variant)] | 58.1%
6 | YLRRQKRLK (here or on the partner: biotinylated heavy chain) [P60 9-mer peptide (FOXA1.p.F266L)] | 36.6%
7 | LLERNSFEV (here or on the partner: biotinylated heavy chain) [P73 9-mer peptide (TP53 (G266E))] | 3.5%

Target: HLA-A*02:01 (human)
Assay: UV peptide exchange + HLA class I ELISA
Conditions: remark: other sources report otherwise

Row | Binder | exchange rate vs Pos peptide
8 | FLFLLLPLS (here or on the partner: biotinylated heavy chain) [P87 9-mer peptide (AR-Intron splice variant)] | 64%
9 | HVPKILSGK (here or on the partner: biotinylated heavy chain) [P58 9-mer peptide (AR (Q903H))] | 11.8%
10 | IPVLTRWPL (here or on the partner: biotinylated heavy chain) [P19 9-mer peptide (TMEM222-LOC644961 fusion)] | 8.2%
11 | RVGNCKHLK (here or on the partner: biotinylated heavy chain) [P82 9-mer peptide (AR-V7 splice variant)] | 6.3%
12 | YLRRQKRLK (here or on the partner: biotinylated heavy chain) [P60 9-mer peptide (FOXA1.p.F266L)] | 7.9%
13 | LLERNSFEV (here or on the partner: biotinylated heavy chain) [P73 9-mer peptide (TP53 (G266E))] | 89.2%

Target: HLA-B*08:01 (human)
Assay: UV peptide exchange + HLA class I ELISA
Conditions: remark: other sources report otherwise

Row | Binder | exchange rate vs Pos peptide
14 | FLFLLLPLS (here or on the partner: biotinylated heavy chain) [P87 9-mer peptide (AR-Intron splice variant)] | 3.1%
15 | HVPKILSGK (here or on the partner: biotinylated heavy chain) [P58 9-mer peptide (AR (Q903H))] | 5.3%
16 | IPVLTRWPL (here or on the partner: biotinylated heavy chain) [P19 9-mer peptide (TMEM222-LOC644961 fusion)] | 14.5%
17 | RVGNCKHLK (here or on the partner: biotinylated heavy chain) [P82 9-mer peptide (AR-V7 splice variant)] | 1.4%
18 | YLRRQKRLK (here or on the partner: biotinylated heavy chain) [P60 9-mer peptide (FOXA1.p.F266L)] | 10.2%
19 | LLERNSFEV (here or on the partner: biotinylated heavy chain) [P73 9-mer peptide (TP53 (G266E))] | 2.6%

Target: HLA-B*07:02 (human)
Assay: UV peptide exchange + HLA class I ELISA
Conditions: remark: other sources report otherwise

Row | Binder | exchange rate vs Pos peptide
20 | FLFLLLPLS (here or on the partner: biotinylated heavy chain) [P87 9-mer peptide (AR-Intron splice variant)] | 5%
21 | RAVRRMNTF (here or on the partner: biotinylated heavy chain) [P17 9-mer peptide (MSMB-NOCA4 fusion)] | 38.7%
22 | IPVLTRWPL (here or on the partner: biotinylated heavy chain) [P19 9-mer peptide (TMEM222-LOC644961 fusion)] | 91.3%
23 | RVGNCKHLK (here or on the partner: biotinylated heavy chain) [P82 9-mer peptide (AR-V7 splice variant)] | 12.9%
24 | YLRRQKRLK (here or on the partner: biotinylated heavy chain) [P60 9-mer peptide (FOXA1.p.F266L)] | 6.1%
25 | LLERNSFEV (here or on the partner: biotinylated heavy chain) [P73 9-mer peptide (TP53 (G266E))] | 8.7%

Target: HLA-A*01:01 (human)
Assay: UV peptide exchange + HLA class I ELISA
Conditions: remark: other sources report otherwise

Row | Binder | exchange rate vs Pos peptide
26 | FLFLLLPLS (here or on the partner: biotinylated heavy chain) [P87 9-mer peptide (AR-Intron splice variant)] | 1.1%
27 | HVPKILSGK (here or on the partner: biotinylated heavy chain) [P58 9-mer peptide (AR (Q903H))] | 2.5%
28 | RAVRRMNTF (here or on the partner: biotinylated heavy chain) [P17 9-mer peptide (MSMB-NOCA4 fusion)] | 4.9%
29 | IPVLTRWPL (here or on the partner: biotinylated heavy chain) [P19 9-mer peptide (TMEM222-LOC644961 fusion)] | 5.2%
30 | RVGNCKHLK (here or on the partner: biotinylated heavy chain) [P82 9-mer peptide (AR-V7 splice variant)] | 1.5%
31 | YLRRQKRLK (here or on the partner: biotinylated heavy chain) [P60 9-mer peptide (FOXA1.p.F266L)] | 3.1%

Target: HLA-A*24:02 (human)
Assay: UV peptide exchange + HLA class I ELISA
Conditions: remark: other sources report otherwise

Row | Binder | exchange rate vs Pos peptide
32 | FLFLLLPLS (here or on the partner: biotinylated heavy chain) [P87 9-mer peptide (AR-Intron splice variant)] | 0.2%
33 | HVPKILSGK (here or on the partner: biotinylated heavy chain) [P58 9-mer peptide (AR (Q903H))] | 0.2%
34 | RAVRRMNTF (here or on the partner: biotinylated heavy chain) [P17 9-mer peptide (MSMB-NOCA4 fusion)] | 0.1%
35 | IPVLTRWPL (here or on the partner: biotinylated heavy chain) [P19 9-mer peptide (TMEM222-LOC644961 fusion)] | 0.1%
36 | RVGNCKHLK (here or on the partner: biotinylated heavy chain) [P82 9-mer peptide (AR-V7 splice variant)] | -0.1%
37 | YLRRQKRLK (here or on the partner: biotinylated heavy chain) [P60 9-mer peptide (FOXA1.p.F266L)] | 0.9%
38 | LLERNSFEV (here or on the partner: biotinylated heavy chain) [P73 9-mer peptide (TP53 (G266E))] | 0.5%
